Measurements from the nanobody polyreactivity screen of Harvey et al. (2022).

Assay: yeast display, Sf9 membrane polyspecificity reagent, FACS + sequencing; frameworks hold sequencing errors
Summary of the method: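 Sorting gates, low and high (top ~1%), were placed on anti-HA fluorescence to track expression and on streptavidin fluorescence to track reagent binding. A clone's polyreactivity label is taken from the gate it came out of. The reagent was 10% biotinylated, detergent-solubilized Sf9 membrane, applied for 1 hour at 4 °C to galactose-induced yeast display cells.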

| Sequence | polyreactivity (PSR sort gate) |
| --- | --- |
| QVQLVESGGGLVQAGGSLRLSCAASGSISIRNAMGWYRQAPGKERELVAAISRGGSTYYADSVKGRFTISRDNAKNTVYLQMNSLKPEDTAVYYCATDGGRYYRGREYAFKYYYWGQGTQVTVSS | high polyreactivity |
| QVQLVESGGGLVQAGGSLRLICAASGSIFTYYAMGWYRQAPGKDRDLVAAINWSGGSTYYADSVKGRFTISRDNAKNTVYLQINSLNPEDTAVYYCSNDYYARRHSPRYDYWGQGTQVTVSS | low polyreactivity |
| PVQLVESGGGLVQAGGSLRLSCAASGFIFYYNTMGSYRQAPGKERELVAAINSGGSTYYADSVKGRFTISRDNAKNTVYLQMNSLKPEDTAVYYCAKRYAVSSGYYYWGQGTQVTVSS | high polyreactivity |
| QVQLVESGGGLVQAGGSLRLSCAASGSTFLNYAMGWSRQAPGKERELVAAISGSTTRTYYADSVKGRFTISRDNAKNPVYLQMNSLKPEDTAVYYCAARVRYPPYRSSDGQRAGYWGQGTQVTVSS | high polyreactivity |
| QVQLVESGGGLVQAGGSLRLSCAASGRTFHAYAMGGYRQARGKARELVATISTSGTSTYYADSVKGRFTISRDNAKNTVYLQMNSLKAEDTAVYYCGKGPRQDFYFSFEYWGQGTQVTVSS | high polyreactivity |
| QVQLVDSGGGVVQAGGSLRLSCAASGFIFHRYAMGWYRPAPGKERELVASITRSGGSTYYADSVKGRFTISRDNAKNTVYLQMNSLKPEDTAVYYCAAQLPAYYKYPRHDYWGQGTQVTVSS | high polyreactivity |
| QVQLVESGGGLVQAGGSLRLSCAASGSIFQYYVMGWYRQAPGKERELVAAISQSGGRTYYADSVKGRFTISRDNAKNTVYLQMNSLKPVDTAVFYCAADSRNAEYDYWGQGTQVTVSS | high polyreactivity |
| QDQLVESGGGLVQAGGSLRLSCAASGRTFWRYALGWYRQAPGKEREMVAAISSGGITYYADSVKGRFTISRDNAKNTVYLQMNSLKPEDTAVYYCARYGPYESSYHYDYWGQGTQVTVSS | high polyreactivity |
| QVQLVESGGGLVQAGGSLRLSCAASGSTFATNAMGWDRQAPGKERELVASISSGGSTTYADSVKGRFTISRDNAKNTVYLQMNSLKPEDTAVYYCNKRYLWRNSRGFDYWGQGTQVTVSS | low polyreactivity |
| QVQLVESAGGLVQAGGSLRLSCAASGFTFGKNSMGWYRQAPGKERELVAAISGSGSRTYYADSVKGRFTISRDNAKNTVYLQMNSLKPEDTAVYYCAAAVTGSYASDYWGQGTQVTVSS | high polyreactivity |
| QVQLVESGGGLVQAGGSLRLSCAASGFTFINYAMGWYRQAPGKERELVAAISRRGGSTYYADSVKGRFTISRDNAKNTVYLQMNSLKPEDTAVYYCAARGYSYNYDYWGQGTQVTVSS | high polyreactivity |
| QVQLVESGGGLVQAGGSLRLSCAASGSTFSYYDMGWYRQAPGKERELVAAISWNGGTTYYADSVKGRFTISRDNAKNTVYLQMNSLKPEDTAVYYCAATWDFYWAPYDSWGQGTQVTVSS | low polyreactivity |
| QVKLVESGGGLVQAGGSLRLSCAAYGSTFAYNAMGWYRQAPGKERELVADISWSGGSTYYADSVKGRFTISRDNAKNTVYLQMNSLNPEDTAVYYCATEYSEGITQFFWATDYDYWGQGSQVTVSS | high polyreactivity |
| QVQLVESGGGLVQAGGSLRLSCAASGRIITGNAMGWYRQAPGKERELVATITRRGGSTYYADSVKGRFTISRDNAKNTVYLQMNSLKPEDTAVYYCAANRLFSYDKYGYWGQGTQVTVSS | high polyreactivity |
| PVQLVESGGGLVQAGGSLRLSCAASGFIFDSYPMGWYRQAPGKERELVAAISYSAGSTSYADSVKGRFTISRDNAKNTVYLQMKSLKPEDTAVYYCNARYYPLYSNSYDSWGQGTQVTVSS | low polyreactivity |
| QVQLVESGGGLVQAGGSLRLSCAASGSTFGYYTMGWYRQAPGKERELVAAISGSGGRTYYADSVKGRFTISRDNAKKTVNLQMNSLKPEDTAVYYCAAEGRSDWGGDDYYWGQGTQVTVSS | low polyreactivity |
| QVQLVESGGGLVQAGGSLRLSCAASGRTRFYAMGWYRQPPGKEREMVAAISGSSGSTYYADSVKGRFTISRDNAKNTVYLQMNSLKPEDTAVYYCAADFWRFYYEYDYWGQGTQVTVSS | low polyreactivity |
